Source: patent US20200016266A1

Biological target: recombinant extracellular domain of human VEGFR2 (rhVEGFR2), expressed in human cells (Sino Biological Inc.) (human) (UniProt P35968)
Assay: FRET fluorescence spectroscopy, 0.5 µM 488-VEGFR2 titrated with 594-Gal1, emission at 518 nm

recombinant extracellular domain of human VEGFR2 (rhVEGFR2), expressed in human cells (Sino Biological Inc.) (human), sequence (P35968 20-764 limits assumed): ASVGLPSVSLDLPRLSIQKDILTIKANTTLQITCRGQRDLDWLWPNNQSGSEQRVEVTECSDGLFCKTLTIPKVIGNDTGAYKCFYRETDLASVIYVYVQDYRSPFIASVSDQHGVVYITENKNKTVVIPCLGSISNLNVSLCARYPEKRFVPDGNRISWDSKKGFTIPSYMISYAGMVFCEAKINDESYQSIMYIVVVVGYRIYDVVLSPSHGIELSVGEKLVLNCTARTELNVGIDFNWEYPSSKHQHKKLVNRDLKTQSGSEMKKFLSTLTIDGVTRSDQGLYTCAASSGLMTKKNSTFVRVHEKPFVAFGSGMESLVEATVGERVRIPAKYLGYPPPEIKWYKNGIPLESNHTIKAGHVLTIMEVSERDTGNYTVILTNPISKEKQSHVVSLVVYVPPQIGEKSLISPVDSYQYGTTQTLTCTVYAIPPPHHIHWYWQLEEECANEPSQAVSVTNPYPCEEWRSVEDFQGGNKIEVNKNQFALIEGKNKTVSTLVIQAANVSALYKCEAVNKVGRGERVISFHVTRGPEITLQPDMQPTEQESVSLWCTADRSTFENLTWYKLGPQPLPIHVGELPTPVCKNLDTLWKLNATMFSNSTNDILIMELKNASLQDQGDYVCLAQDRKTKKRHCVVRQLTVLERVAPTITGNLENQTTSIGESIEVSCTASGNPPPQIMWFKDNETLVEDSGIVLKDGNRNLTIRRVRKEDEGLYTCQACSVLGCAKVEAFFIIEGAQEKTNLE

Substance: Galectin-1 (human recombinant Gal1) (from UniProt P09382 2-135) (ligand)
- EC50 (read off the curve): 7 µM
